{"source": "paper PMC9722767", "tested_on": "T1, MsmR1 (Paenibacillus polymyxa SC2-M1 (SC2 derivative)), ORF:0fff1571", "T1 sequence": "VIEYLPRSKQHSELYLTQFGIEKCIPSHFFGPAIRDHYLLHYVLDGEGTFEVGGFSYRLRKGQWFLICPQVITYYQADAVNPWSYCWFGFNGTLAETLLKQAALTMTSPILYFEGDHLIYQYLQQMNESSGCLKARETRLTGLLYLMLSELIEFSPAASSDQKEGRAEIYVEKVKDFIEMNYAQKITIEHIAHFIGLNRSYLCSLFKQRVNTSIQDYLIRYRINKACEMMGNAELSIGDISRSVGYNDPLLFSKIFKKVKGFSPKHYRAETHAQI", "test": "EMSA", "conditions": "Chemiluminescent EMSA kit (Beyotime); labeled probe about 0.4 uM, competitor about 4 uM, protein gradient; buffer, salt, pH and temperature not stated", "data": [{"sequence": "ACCATTTCCCGGGCAATCGGCTGCCGGGTGCGAATGGAATCGCCCAAGTCCCCTCGTGCCAGTTCACTTAGATAGGTCCCATATTGCTGTAGCCACGGCTTATCCAGCCCTAATTGCTCACGCAGCGCCTGTTTGGACTGTTCCGTGGCCTTGTCCCCGAGTATCGTTTCTGCCGGATCACCGGGAATAGCATGAATAATCGAAAACACGATAAGCGTCATCCCCA (double strand) [oppC3 upstream fragment]", "values": [{"measurement": "binding", "result": "binds"}]}, {"sequence": "ATATGATTTCTGTAGAACCTACTGCTATATTGTTGGATCTTATCAAGCTTTACACCATATGAACTTAGTTGACGCCTGCTACATAAAGATTCTTCTAAGTGCCTTTTTGGTGTGGATCTCTGATGATTATTATCTAAGAGAGGGGTTATTTTTCCCAA (double strand) [msmR1 promoter]", "values": [{"measurement": "binding", "result": "binds"}]}, {"sequence": "CAGAGGAAATGCATGTCCGTATTATCGGAGACAACACGATTTCCCGCAAAAATCATGCGGTCATTGTGTATGATCCGAAGAAACGCAACTTTTACTTGCTGCCAGGCGATTCGTCAGGCTTGGCGTATCACAATAACGAGGCGGTATATTCACCAGTGGAGCTGGCTGCTTATGACGTGATTCAGCTCGGGCGCAGCAAATTTATCTTTATTCCGCTGTGCGGCGCTCATTTCGAGTGGGA (double strand) [pppL upstream fragment]", "values": [{"measurement": "binding", "result": "binds"}]}, {"sequence": "CAGCAACGCACCTCAAGAGATTGCAGGTGTGAAGGTAGACAAAGTACTGGACTACTCGCAAGGCTTGGACGGACTTCCGCAGGAAAACGTACTCAAGTTTTTATTGGAGGACGGTTCTTGGTTCTGCCTGCGTCCTTCGGGCACAGAGCCTAAAATCAAAGTATACTTTGCAGTACGTGGTTCCTC (double strand) [PPSC2_23180 upstream fragment]", "values": [{"measurement": "binding", "result": "binds"}]}, {"sequence": "CCGATTCATCTCATTTACGCATGGATATGTTGAGAAAAAGGAAATGCTCATAGCTAGAAAACTTTATACAATGAAAGAGAAATAAGCACTGTGAAATTCGACTTTTGATCATGGATTTCATATAATGTGAATTGCTTAAATTAGAGATTTAAC (double strand) [sucA upstream fragment]", "values": [{"measurement": "binding", "result": "binds"}]}, {"sequence": "CGGAACAAATGGATCTTCGCAAAGAATACCTTCAAATCTTTCGAGGCTCTATCAAAAGCATACTTTTGAATGCTACGATTTATGATCCGAATGGAGATGATGTTACTCCTGAAAAATTAAGAAAAGAACAGGCTCAAATCGTTAAGCCATGAATTTAATTTTGTCT (double strand) [ydfp upstream fragment]", "values": [{"measurement": "binding", "result": "binds"}]}, {"sequence": "GGACGAATCGCACATGAGGCTTTCCCCAACAAACGTGACAGTTTTAGAGCCTTGGGCAATTATGTAAAGAGAGGGCATGTTGAGGGTATGCGTCGGTTTCGACTCCGCGGATGCGCGCCTGAAACAAAGCTCTGGAATCGCTGTTTGGTGTAAACCATCCTTAGGCGTATGCCGTGCTATTTGCTTAGCTAACTCCGTAATGAGTTGGTTCAAACTTGTTCACCAATCCTTTTTCATTTAATCTGATATGAATATTGTAATTCAAACCGGACAGGAATAGGCAAGGAACGCGTATGAAT (double strand) [sdr3 upstream fragment]", "values": [{"measurement": "binding", "result": "binds"}]}, {"sequence": "TGATCTGGTAACACCGAACTTATTCGAGGCTTCACAGCTGGCGAAGAAAGGACCGATCACGACACTGGAGCAGATGCAGGAAGCGGCTGCTATTATCCACGAGCGTGGTGCTAAGCATGTGCTGATCAAGGACCGTGGCAAAATTCGCGCAGGTAAAGCGATGGATCTGCTGTATGACGGAATCACTTTTGACTGGTTTGAAGCGGATGTTGTACAAACCAACTTTACCCACGGTGCAGGCTGTACCACTTCGGCTGCGGTAACGGCTGGTTTGGCACAAGGGCTGACTGTAC (double strand) [pepF upstream fragment]", "values": [{"measurement": "binding", "result": "binds"}]}]}
